Test results published in patent US20150232507A1.

Experiments:
Assay in all cases: cell-based or functional assay
[1] = molecular target: C-terminal domain of G1 cloned directly to Trx whose first amino acid is Ala (E. coli)
[2] = molecular target: C-terminal domain of G1 cloned directly to Trx whose first amino acid is Arg (E. coli)
[3] = molecular target: C-terminal domain of G1 cloned directly to Trx whose first amino acid is Asn (E. coli)
[4] = molecular target: C-terminal domain of G1 cloned directly to Trx whose first amino acid is Asp (E. coli)
[5] = molecular target: C-terminal domain of G1 cloned directly to Trx whose first amino acid is Cys (E. coli)
[6] = molecular target: C-terminal domain of G1 cloned directly to Trx whose first amino acid is Gln (E. coli)
[7] = molecular target: C-terminal domain of G1 cloned directly to Trx whose first amino acid is Glu (E. coli)
[8] = molecular target: C-terminal domain of G1 cloned directly to Trx whose first amino acid is Gly (E. coli)
[9] = molecular target: C-terminal domain of G1 cloned directly to Trx whose first amino acid is His (E. coli)
[10] = molecular target: C-terminal domain of G1 cloned directly to Trx whose first amino acid is Ile (E. coli)
[11] = molecular target: C-terminal domain of G1 cloned directly to Trx whose first amino acid is Leu (E. coli)
[12] = molecular target: C-terminal domain of G1 cloned directly to Trx whose first amino acid is Lys (E. coli)
[13] = molecular target: C-terminal domain of G1 cloned directly to Trx whose first amino acid is Met (E. coli)
[14] = molecular target: C-terminal domain of G1 cloned directly to Trx whose first amino acid is Phe (E. coli)
[15] = molecular target: C-terminal domain of G1 cloned directly to Trx whose first amino acid is Pro (E. coli)
[16] = molecular target: C-terminal domain of G1 cloned directly to Trx whose first amino acid is Ser (E. coli)
[17] = molecular target: C-terminal domain of G1 cloned directly to Trx whose first amino acid is Thr (E. coli)
[18] = molecular target: C-terminal domain of G1 cloned directly to Trx whose first amino acid is Trp (E. coli)
[19] = molecular target: C-terminal domain of G1 cloned directly to Trx whose first amino acid is Tyr (E. coli)
[20] = molecular target: C-terminal domain of G1 cloned directly to Trx whose first amino acid is Val (E. coli)

C-terminal Cleavage Yield (%) [1]: 75.8%
C-terminal Cleavage k [1]: 0.000357 s⁻¹
C-terminal Cleavage t(½) [1]: 32.4 min
C-terminal Cleavage Yield (%) [2]: 87.3%
C-terminal Cleavage k [2]: 0.00051 s⁻¹
C-terminal Cleavage t(½) [2]: 22.6 min
C-terminal Cleavage Yield (%) [3]: 71.2%
C-terminal Cleavage k [3]: 0.000287 s⁻¹
C-terminal Cleavage t(½) [3]: 40.3 min
C-terminal Cleavage Yield (%) [4]: 68.6%
C-terminal Cleavage k [4]: 0.000247 s⁻¹
C-terminal Cleavage t(½) [4]: 46.8 min
C-terminal Cleavage Yield (%) [5]: 83.6%
C-terminal Cleavage k [5]: 0.000683 s⁻¹
C-terminal Cleavage t(½) [5]: 16.9 min
C-terminal Cleavage Yield (%) [6]: 88.8%
C-terminal Cleavage k [6]: 0.00047 s⁻¹
C-terminal Cleavage t(½) [6]: 24.6 min
C-terminal Cleavage Yield (%) [7]: 86.2%
C-terminal Cleavage k [7]: 0.000127 s⁻¹
C-terminal Cleavage t(½) [7]: 91.2 min
C-terminal Cleavage Yield (%) [8]: 75.2%
C-terminal Cleavage k [8]: 0.000137 s⁻¹
C-terminal Cleavage t(½) [8]: 84.5 min
C-terminal Cleavage Yield (%) [9]: 71.1%
C-terminal Cleavage k [9]: 0.000447 s⁻¹
C-terminal Cleavage t(½) [9]: 25.9 min
C-terminal Cleavage Yield (%) [10]: 88.4%
C-terminal Cleavage k [10]: 0.000173 s⁻¹
C-terminal Cleavage t(½) [10]: 66.7 min
C-terminal Cleavage Yield (%) [11]: 69.3%
C-terminal Cleavage k [11]: 0.000273 s⁻¹
C-terminal Cleavage t(½) [11]: 42.3 min
C-terminal Cleavage Yield (%) [12]: 86.7%
C-terminal Cleavage k [12]: 0.00051 s⁻¹
C-terminal Cleavage t(½) [12]: 22.6 min
C-terminal Cleavage Yield (%) [13]: 85.6%
C-terminal Cleavage k [13]: 0.00087 s⁻¹
C-terminal Cleavage t(½) [13]: 13.3 min
C-terminal Cleavage Yield (%) [14]: 72.6%
C-terminal Cleavage k [14]: 0.000307 s⁻¹
C-terminal Cleavage t(½) [14]: 37.7 min
C-terminal Cleavage Yield (%) [15]: 57.8%
C-terminal Cleavage k [15]: 6e-05 s⁻¹
C-terminal Cleavage t(½) [15]: 193 min
C-terminal Cleavage Yield (%) [16]: 89.4%
C-terminal Cleavage k [16]: 0.000483 s⁻¹
C-terminal Cleavage t(½) [16]: 23.9 min
C-terminal Cleavage Yield (%) [17]: 87.5%
C-terminal Cleavage k [17]: 0.000573 s⁻¹
C-terminal Cleavage t(½) [17]: 20.1 min
C-terminal Cleavage Yield (%) [18]: 94.1%
C-terminal Cleavage k [18]: 0.00028 s⁻¹
C-terminal Cleavage t(½) [18]: 41.3 min
C-terminal Cleavage Yield (%) [19]: 91.3%
C-terminal Cleavage k [19]: 0.00033 s⁻¹
C-terminal Cleavage t(½) [19]: 35 min
C-terminal Cleavage Yield (%) [20]: 86.7%
C-terminal Cleavage k [20]: 0.000273 s⁻¹
C-terminal Cleavage t(½) [20]: 42.3 min
B1: G1^N(C1A): StreptagII-gpD-linker[N-extein]-Gp41.1^N(C1A)-GGHHHHHH fusion protein (protein)
chain: MASWSHPQFEKASKETFTHYQPQGNSDPAHTATAPGGLSAKAPAMTPLMLDTSSRKLVAWDGTTDGAAVGILAVAADQTSTTLTFYKSGTFRYEDVLWPEAASDETKKRTAFAGTAISIVGSTRSGYALDLKTQVQTPQGMKEISNIQVGDLVLSNTGYNEVLNVFPKSKKKSYKITLEDGKEIICSEEHLFPTQTGEMNISGGLKEGMCLYVKEGGHHHHHH
